Measured values: patent publication US20220064248A1, “PHARMACEUTICAL COMPOSITION INCLUDING INSULIN AND GLUCAGON” (HANMl PHARM. CO., LTD, priority 2018, published 2022)
Bridges are numbered along the chain shown (N, C = ends). Where no end group is shown, it is not given here. [ ]: non-standard residue; d: D form. Aib = CC(C)(N)C(=O)O

Molecular target: glucagon receptors (Homo sapiens, UniProt P47871)
Test: In vitro activity of glucagon analogs relative to native glucagon
Format: cell-based
Conditions: relative to native glucagon (SEQ ID NO: 1)
Protocol: The glucagon analogs were synthesized with reference to Korean Patent Publication Nos. 10-2016-0082482, 10-2017-003466, and 10-2018-0002544, and pl and in vitro activity thereof were measured.

Sequence of glucagon receptors (P47871 26-477): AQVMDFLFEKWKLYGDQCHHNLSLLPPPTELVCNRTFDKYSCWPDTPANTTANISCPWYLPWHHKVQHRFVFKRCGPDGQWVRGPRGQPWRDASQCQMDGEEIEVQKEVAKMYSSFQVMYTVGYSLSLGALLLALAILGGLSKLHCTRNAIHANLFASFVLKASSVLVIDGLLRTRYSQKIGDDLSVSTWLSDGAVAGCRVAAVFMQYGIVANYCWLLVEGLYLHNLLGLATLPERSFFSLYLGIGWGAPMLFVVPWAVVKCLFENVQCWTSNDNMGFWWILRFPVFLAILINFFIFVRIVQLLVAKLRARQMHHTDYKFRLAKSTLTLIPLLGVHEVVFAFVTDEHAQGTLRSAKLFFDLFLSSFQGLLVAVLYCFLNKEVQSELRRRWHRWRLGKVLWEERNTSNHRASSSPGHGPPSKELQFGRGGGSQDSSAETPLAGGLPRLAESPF

Row | Substance | In vitro activity (relative activity to SEQ ID NO: 1, %) [%]
1 | YXQGTFTSDYSKYLDEKRAKCFVQWLMNT (Y[Aib]QGTFTSDYSKYLDEKRAKCFVQWLMNT; lactam 16-20) [SEQ ID NO: 25] | 46.9
2 | YXQGTFTSDYSKYLDECRAKEFVQWLMNT (Y[Aib]QGTFTSDYSKYLDECRAKEFVQWLMNT; lactam 16-20) [SEQ ID NO: 20] | 299.7
3 | YXQGTFTSDYSKYCDERRAKEFVQWLMNT (Y[Aib]QGTFTSDYSKYCDERRAKEFVQWLMNT; lactam 16-20) [SEQ ID NO: 35] | 17.7
4 | YXQGTFTSDYSKYLDCKRAKEFVQWLMNT (Y[Aib]QGTFTSDYSKYLDCKRAKEFVQWLMNT; lactam 17-21) [SEQ ID NO: 31] | 6.3
5 | YXQGTFTSDYSKYCDEKRAKEFVQWLMNT (Y[Aib]QGTFTSDYSKYCDEKRAKEFVQWLMNT; lactam 16-20) [SEQ ID NO: 23] | 76.8
6 | YXQGTFTSDYSKYLDCVRAQDFVQWLMRT (Y[Aib]QGTFTSDYSKYLDCVRAQDFVQWLMRT) [SEQ ID NO: 17] | 23.2
7 | YXQGTFTSDYSKCLDEKRAKEFVQWLMNT (Y[Aib]QGTFTSDYSKCLDEKRAKEFVQWLMNT; lactam 16-20) [SEQ ID NO: 24] | 58.0
8 | YXQGTFCSDYSKYLDSRRAQDFVQWLMNT (Y[Aib]QGTFCSDYSKYLDSRRAQDFVQWLMNT) [SEQ ID NO: 42] | 37.9
9 | YXQGTFTSDYSKYLDCRRAQVFVQWLMRT (Y[Aib]QGTFTSDYSKYLDCRRAQVFVQWLMRT) [SEQ ID NO: 16] | 4.2
10 | YXQGTFTSDYSKYLDEKRAKEFVQWLMNTC (Y[Aib]QGTFTSDYSKYLDEKRAKEFVQWLMNTC; lactam 16-20) [SEQ ID NO: 12] | 56.3
11 | YXQGTFTSDCSKYLDERRAKEFVQWLMNT (Y[Aib]QGTFTSDCSKYLDERRAKEFVQWLMNT; lactam 16-20) [SEQ ID NO: 36] | 9.9
12 | WXQGTFTSDYSKCLDERRAKDFVQWLMNT (W[Aib]QGTFTSDYSKCLDERRAKDFVQWLMNT; lactam 16-20) [SEQ ID NO: 30] | 0.3
13 | YXQGTFTSDCSKYLDSRRAQDFVQWLMNT (Y[Aib]QGTFTSDCSKYLDSRRAQDFVQWLMNT) [SEQ ID NO: 43] | 1.6
14 | YXQGTFCSDYSKYLDERRAKDFVQWLMNT (Y[Aib]QGTFCSDYSKYLDERRAKDFVQWLMNT; lactam 16-20) [SEQ ID NO: 41] | 45.2
15 | YXQGTFTSDYSKYLCEKRAKEFVQWLMNT (Y[Aib]QGTFTSDYSKYLCEKRAKEFVQWLMNT; lactam 16-20) [SEQ ID NO: 19] | 12.1
16 | YXQGTFTSDYSKCLDERRAKDFVQWLMNT (Y[Aib]QGTFTSDYSKCLDERRAKDFVQWLMNT; lactam 16-20) [SEQ ID NO: 29] | 61.3
17 | WXQGTFTSDYSKYCDERRAKEFVQWLMNT (W[Aib]QGTFTSDYSKYCDERRAKEFVQWLMNT; lactam 16-20) [SEQ ID NO: 34] | 0.2
18 | YXQGTFTSDYSCYLDSRRAQDFVQWLMNT (Y[Aib]QGTFTSDYSCYLDSRRAQDFVQWLMNT) [SEQ ID NO: 13] | 5.2
19 | YXQGTFTSDYSKYLCEKRAQDFVVWLMNT (Y[Aib]QGTFTSDYSKYLCEKRAQDFVVWLMNT) [SEQ ID NO: 15] | 1.1
20 | YXQGTFTSDYSKYLDERRAKEFVQWLMNTC (Y[Aib]QGTFTSDYSKYLDERRAKEFVQWLMNTC; lactam 16-20) [SEQ ID NO: 37] | 225.5
21 | WXQGTFTSDYSKYLDECRAKDFVQWLMNT (W[Aib]QGTFTSDYSKYLDECRAKDFVQWLMNT; lactam 16-20) [SEQ ID NO: 26] | 1.0
22 | YXQGTFTSDYSKYLDEKRCKEFVQWLMNT (Y[Aib]QGTFTSDYSKYLDEKRCKEFVQWLMNT; lactam 16-20) [SEQ ID NO: 22] | 147.8
23 | YXQGTFCSDYSKYLDERRAKEFVQWLMNT (Y[Aib]QGTFCSDYSKYLDERRAKEFVQWLMNT; lactam 16-20) [SEQ ID NO: 38] | 167.3

Now from value to substance:

Row | In vitro activity (relative activity to SEQ ID NO: 1, %) [%] | Substance
24 | 18.1 | YXQGTFTSDYSKYLDCKRAKEFVQWLMNT [SEQ ID NO: 14] (Y[Aib]QGTFTSDYSKYLDCKRAKEFVQWLMNT; not fully specified (bridges); also: lactam ring between underlined residues, places not shown)
25 | <0.1 | HSQGTFTSDYSKYLDSCEADDFVQWLMNT (glucagon derivative) [SEQ ID NO: 6]
26 | 0.6 | HSQGTFTSDYSKYLDCDRAQDFVQWLMNT (glucagon derivative) [SEQ ID NO: 2]
27 | 3.7 | YXQGTFVSDCSKYLDERRAKDFVQWLMNT (Y[Aib]QGTFVSDCSKYLDERRAKDFVQWLMNT; lactam 16-20) [SEQ ID NO: 39]
28 | <0.1 | HSQGTFTSDYSKYLDSCDAQDFVQWLMNT (glucagon derivative) [SEQ ID NO: 4]
29 | 93.6 | YXQGTFVSDYSKYLDECRAKDFVQWLMNT (Y[Aib]QGTFVSDYSKYLDECRAKDFVQWLMNT; lactam 16-20) [SEQ ID NO: 27]
30 | <0.1 | YXQGTFTSDYSKYLDSCDADDFVVWLINT (Y[Aib]QGTFTSDYSKYLDSCDADDFVVWLINT) [SEQ ID NO: 10]
31 | <0.1 | YSQGTFTSDYSKYLDSCEADDFVQWLMNT (glucagon derivative) [SEQ ID NO: 7]
32 | 0.7 | -SQGTFTSDYSKYLDECRAKEFVQWLMNT (lactam 15-19; also: name begins with '-' (N-terminal residue not shown)) [SEQ ID NO: 32]
33 | 0.3 | HSQGTFTSDYSKYLDSCEAQDFVQWLMNT (glucagon derivative) [SEQ ID NO: 5]
34 | <0.1 | YXQGTFTSDYSKYLDSCDAQDFVVWLINT (Y[Aib]QGTFTSDYSKYLDSCDAQDFVVWLINT) [SEQ ID NO: 9]
35 | <0.1 | YXQGTFTSDYSKYLDSRRACDFRLWLMNT (Y[Aib]QGTFTSDYSKYLDSRRACDFRLWLMNT) [SEQ ID NO: 18]
36 | 4.6 | YXQGTFTSDYSKYLDEKCAKEFVQWLMNT [SEQ ID NO: 11] (Y[Aib]QGTFTSDYSKYLDEKCAKEFVQWLMNT; not fully specified (bridges); also: lactam ring between underlined residues, places not shown)
37 | 6.1 | HSQGTFTSDYSKYLDCERAQDFVQWLMNT (glucagon derivative) [SEQ ID NO: 3]
38 | <0.1 | YXQGTFTSDYSKYLDSCDAQDFVQWLINT (Y[Aib]QGTFTSDYSKYLDSCDAQDFVQWLINT) [SEQ ID NO: 8]
39 | <0.1 | WXQGTFVSDYSKYLDECRAKDFVQWLMNT (W[Aib]QGTFVSDYSKYLDECRAKDFVQWLMNT; lactam 16-20) [SEQ ID NO: 28]
40 | 40.8 | YXQGTFVSDYSKYLDERRAKDFVQWLMNTC (Y[Aib]QGTFVSDYSKYLDERRAKDFVQWLMNTC; lactam 16-20) [SEQ ID NO: 40]
41 | 108.2 | YXQGTFTSDYSKYLDSRRAQDFVQWLMNT (X non-natural residue; glucagon derivative; (2) Xaa is aminoisobutyric acid (Aib)) [SEQ ID NO: 33]
42 | 75.4 | YXQGTFTSDYSKYLDSRRAQDFVQWLMNTC (glucagon derivative; (2) Xaa is aminoisobutyric acid (Aib)) [SEQ ID NO: 44]
43 | 57.8 | YXQGTFTSDYSKYLDEKCAKEFVQWLMNT [SEQ ID NO: 21] (Y[Aib]QGTFTSDYSKYLDEKCAKEFVQWLMNT; lactam 16-20)
